Data published in PMC12464775 (2025).
Where a chain is given by its changes, count along the chain named. Ends that are not written are not given here. * marks the point of attachment. Biotin = O=C1N[C@H]2[C@H](CS[C@H]2CCCCC(=O)*)N1; azide = [N-]=[N+]=N*

B1: N-terminal biotinylated GUR-1.6.12.2 (designed binder)
chain: Biotin-EQCTSTQDLCHDYSHVCCWPLDCRWAVKYQWFWDCIG
modifications: cysteine pairing not given here
B2: mouse RNF43 (domain or fragment)
chain: GFGHTGRVLAAAVESERSAEQKAVIRVIPLKMDPTGKLNLTLEGVFAGVAEVTPAEGKLMQSHPLYLCNASDDDNLEPGFISIVKLESPRRAPRPCLSLASKARMAGERGANAVLFDITEDRSAAEQLQQPLGLTKPVVLIWGSDAAKLMEFVYKNRKAYVWIELKEPPAGANY
B3: hex-GUR-1.6.12.2 (designed binder)
chain: azide-EQCTSTQDLCHDYSHVCCWPLDCRWAVKYQWFWDCIG
modifications: also: hexamer via six-armed PEG linker (azide–alkyne cycloaddition)
B4: GUR-1.6.12.2 (designed binder)
chain: EQCTSTQDLCHDYSHVCCWPLDCRWAVKYQWFWDCIG
B5: extracellular domain (ECD) of the human RNF43 protein, biotinylated (domain or fragment)
chain: GFGRTGLVLAAAVESERSAEQKAIIRVIPLKMDPTGKLNLTLEGVFAGVAEITPAEGKLMQSHPLYLCNASDDDNLEPGFISIVKLESPRRAPRPCLSLASKARMAGERGASAVLFDITEDRAAAEQLQQPLGLTWPVVLIWGNDAEKLMEFVYKNQKAHVRIELKEPPAWPDY
modifications: biotin (EZ-link-NHS-PEG4-biotin), 1–2 biotin molecules per protein
B6: truncated peptide GUR-1.6.12.2 H11-G37 (peptide)
chain: HDYSHVCCWPLDCRWAVKYQWFWDCIG
B7: GUR-1.6.12 (designed binder)
chain: QCVKKDELCIPYYLDCCWPLDCRWAVKYQWFWDCIG
B8: GUR-1.6 (designed binder)
chain: B7 chain with W18E, D21E
B9: di-GUR-1.6.12.2 (designed binder)
chain: azide-EQCTSTQDLCHDYSHVCCWPLDCRWAVKYQWFWDCIG
modifications: also: dimer via bivalent PEG5 linker (azide–alkyne cycloaddition)

Assays:
[1] = target: B5; assay: SPR; RNF43 immobilized
[2] = target: T1, human RNF43 (in solution) (human); assay: SPR; bio-GUR-1.6.12.2 immobilized
T1 chain: B5 chain

GUR-1.6.12.12 = assay: SPR
GUR-1.6.12.4 = assay: SPR
GUR-1.6.12.16 = assay: SPR
[3] = target: B5; assay: SPR
mouse RNF43 = target: B2; assay: SPR
[4] = target: B5; assay: SPR
deglycosylated RNF43 = target: T2, deglycosylated RNF43 (human, UniProt Q68DV7 24-197, biotin; deglycosylated with Deglycosylation Mix II (glycosylation sites N62 and N92)); assay: SPR; deglycosylated RNF43
T2 chain: B5 chain

NAz-GUR-1.6.12.2 = assay: SPR
GUR-1 = assay: SPR

B1
Kd [1]: 0.5 nM | Kd [2]: 46.9 nM

B2
Kd (GUR-1.6.12.12): 5.1 nM | Kd (GUR-1.6.12.4): 4.5 nM | Kd (GUR-1.6.12.16): 1.6 nM

B3
Kd [3]: 0.0002 nM

B4
Kd (mouse RNF43): 2.1 nM | Kd [4]: 1.1 nM | Kd (deglycosylated RNF43): 2.8 nM

B5
Kd (NAz-GUR-1.6.12.2): 2.9 nM | Kd (GUR-1.6.12.12): 7.9 nM | Kd (GUR-1.6.12.4): 3.9 nM | Kd (GUR-1): 1220 nM | Kd (GUR-1.6.12.16): 4 nM

B6
Kd [3]: 4.6 nM

B7
Kd [4]: 56 nM

B8
Kd [4]: 92 nM

B9
Kd [3]: 0.06 nM
